The source of these data is the DeepSol protein solubility set.

The data set can be described thus: soluble on expression in E. coli; label from the status in PepcDB or PDB records.
With “MNAPPAWAADILKKASSQALDLYNKGIGGNVYQGERIAGLGTMTKNALTGLEQAVGQYNNPALTQWFNAPTQSAHNLLGMAKGDWIGNNSKFNAALQSALSKTSDAINQSMAGAGRYGSGAHTGVLADELGALATNAAAQQYNQDIHNMMNANQMIDRSLYDQVNAANNYYQGQSNAQSNALKGGLIQDVNRQNALDAERQKWTEQDNQAWNQLERLLRVGTQAAGNYGTTSGKSTTMPSVTKDPLRDAQQVLGLMGGILGLCDVRAKENIVPVGEKNGYPLYVFNYKGDPQRYCGVLAQEVLRLKPEAVFVNAKTKLLHVDYNKIGLKMKKISEPKKRIATFFSALFARFPFLQKGYLLLEHHHHHH”, the “soluble on expression in E. coli” value is listed as “soluble”.
In the case of “MNASTSSPSQQLQQAINSTIDKECAVCYSEMILPTTIPSCGHKFCFICLKGVSVSNNGDCPICRGPIDSQIFKKPLQAVDLKMDIPGTPSAAAPDPVVKQEVDDEDVKPDVKKLQEELKKQQAAAAAQKMFWLYRGRHQGWWRFDPRIEKEIEEAFTHQMPMTEVTICGNPYIVDFSQMCQYPKNQSNYSRNVKYGSRLKVLKILAKIDRKSAF”, the “soluble on expression in E. coli” value was “not soluble”.
The same measure for “MNCRPGCGACCIAISISSPIPGMPRGKPAGVPCVQLRDDMECAIFGRPERPACCSGLRPSDEMCGGDRSHAMTWLARLEQATLPAAENTPHRPPLEHHHHHH”: “not soluble”; for “MNDEINEPPPNICEQCLGDEANIRMTKIPQGSECKICTLPFTLYHFKTSKRSNNIIKTLICVRCATQRNICQCCMLDSRWHIPIQLRDHLISLVNEENVMTEEAKNDMMKRFLSLKNVKLGGAQITSDPSEADNIVDKLKNILLRATSDGPSTPLIKNTTALYKNEKGANEVKNLEKYASVDISHILKKLPLNESFLKNPSTKSFFLYNIDASIPEWKITDTVSQLLGIKKWKDGNSLSLIVNHKAKCGGLRFQSSELGERFVSKISETLVTPKGLKRGVLLIDRFRIFIIPWSSGFSAASFGTNTAENIKLSLSLNKLIQLELGLSFPTKSTDNAKNDKKKTSKKVHKDRSKKSKPRANKLTI”: “soluble”; for “MNDELFNLIERLANLLRQETRLEGQSLGLQPIQQEALYYLSTCNRYSDTTLAVTEFLGLTKGTVSQSLKILESKSLIAKVKDKKDKRITHLKVTETGREFLMKTCPPQKFTDAIAGLSVDEEFETKTLLKKVLSNYQLATGRTAFGVCKHCKFNRKTSDGILCDLTKEALSSDDIMLICREYVV”: “not soluble”.
“MNDHKALKIFLMAAEKRNFAQVARELSMTAAGVTRAIAALECDLGVQLFVRTTRQVSLTTDGAVFAAQIQPAVEALENARRDVRNAHKADEGRLRISAPTWLGKTVLPPILSGFRELYPKMCFEISLSDGLVNIVDDDYDLAIRISSAPSDKFTIWRKIRAVPRILVAAPGSRFTQMKHPSDLTPDDCLAYSGESRRENWILSDGGSSITITAGRAFSANNGEVLADMAADGAGVAMLPGFHIAEHIRSGRLVHVLPGWAPPELWLTLYYPPYQTLPPRIATFSKFFEEQLTAHMVALD”: the “soluble on expression in E. coli” value is “not soluble”.
The same measure for “MNDHLKRGNLLWEGSRMFLPEHKQSLLERKRLKQKLQKPILDPDKLEEMNQTLCAAMEFAQDITVSCFQDGEIVCCTGKICRYEEFEKAVWIKGDEDQLYKLKLDQVLDI”: “not soluble”; for “MNDPREILAVDPYNNITSDEEDEQAIARELEFMERKRQALVERLKRKQEFKKPQDPNFEAIEVPQSPTKNRVKVGSHNATQQGTKFEGSNINEVRLSQLQQQPKPPASTTTYFMEKFQNAKKNEDKQIAKFESMMNARVHTFSTDEKKYVPIITNELESFSNLWVKKRYIPEDDLKRALHEIKILRLGKLFAKIRPPKFQEPEYANWATVGLISHKSDIKFTSSEKPVKFFMFTITDFQHTLDVYIFGKKGVERYYNLRLGDVIAILNPEVLPWRPSGRGNFIKSFNLRISHDFKCILEIGSSRDLGWCPIVNKKTHKKCGSPINISLHKCCDYHREVQFRGTSAKRIELNGGYALGAPTKVDSQPSLYKAKGENGFNIIKGTRKRLSEEEERLKKSSHNFTNSNSAKAFFDEKFQNPDMLANLDNKRRKIIETKKSTALSRELGKIMRRRESSGLEDKSVGERQKMKRTTESALQTGLIQRLGFDPTHGKISQVLKSSVSGSEPKNNLLGKKKTVINDLLHYKKEKVILAPSKNEWFKKRSHREEVWQKHFGSKETKETSDGSASDLEII”: “soluble”; for “MNDQRKKARNTPFNMLKRERNRVSTVQQLTKRFSLGMLQGRGPLKLFMALVAFLRFLTIPPTAGILKRWGTIKKSKAINVLRGFRKEIGRMLNILNRRRR”: “soluble”.
The same measure for “MNDVPHRPQVKTRKALTPLLEIRNLTKSFDGQHAVDDVSLTIYKGEIFALLGASGCGKSTLLRMLAGFEPPSSGQIMLDGVDLAHVPPYQRPINMMFQSYALFPHMTVEQNIAFGLKQDKLPKAEITSRVNEMLGLVHMQEFAKRKPHQLSGGQRQRVALARSLAKRPKLLLLDEPMGALDKKLRDRMQLEVVDILERVGVTCVMVTHDQEEAMTMAGRIAIMNRGKFVQIGEPEEIYEHPTTRYSAEFIGSVNVFEGLLKAREEDGLVIDAPGLVHPLKVDADASVVDNVPVYVALRPEKIMLCESPPADGYNFAVGEVAHIAYLGDLSIYHVRLKSGQMISAQLQNAHRYRKGLPTWGDEVRLCWEADSCVVLTV”: “not soluble”.
In the case of “MNEEKQQELLISVIITNYNYDQFIDQAIESVLSQTYYNFELIIVDDGSTDNSRDVISSYTDSRIKALVKNNGGQASAFNAGFEQANGEIICFLDSDDWWKPEKLETIIRWHYFINKDYAIFQHVLDVWYEGKTRPYKHILPSGDCFAEMKKVKKLDFFVPTSGLSFPKKILDRIFPIPIKFIIAADSYIMRTACVFNMVYSIPKSLGFYRQHDNTVFLNPDFDLQPFLKEILIPELNQFYQKYRINYQIEISDYNFNERKKNKKQKIFEYLKKVFFLEHHHHHH” it was “not soluble”.
Take “MNEFEKLLEESIASPEEFKRGQVVKGRVVKVAGDTVFVDIGYKTEAVISKEEVPEVQEGQEIEAVLVRFSPRIPNPVLSVKPLQEKKELEKLKEAYLNKSDVVGKIEKKVKGGFIVDFEGVKAFLPMSQAGKKLKEGQVLTFKVLDFKLDSKRPQIIVSHKAYLDEQREKRKQELLNTLKPGDVVEGKVVKIDPNKGVTLVIEGVLRAFLPKEELSWGRDKNPYNYTDVGETLKVKVKRVDKQKGFIIVSLRELKGNPWEKFLKEHKEGDVIEGRVVAVTPKGVVVEVMEGVEGFVPEEELAWEGKPEFKKGDLVKAKIMKIDPKRRRLILSIKRAQPRPWEIFLQKHPVGSKVKGKVIKIEGSRAIVELEDGVKGVIHRSDLSWTRPKRVEEVLKEGEEREFAVLGLEGKYVKLGLKQLTENPWEKVKEKYKVGDVVKLPVKELAPFGAFLEFPEGVEGLLPFSEVPRHIRIRKGQEYEVKIIDINPKEGKITFSINALYGEKPEEKEEKVEEVTTATTGGFKLGEILKKRWKL”: the “soluble on expression in E. coli” value is reported as “not soluble”.
The same measure for “MNEFMEPLDRISAETLGHYERNAEAFFEGTRDHDVSQNIAALLSHIRTEPPFTVLDFGCGPGRDLKAFTELGHRAVGLDGAFRFVEMARDYSGCEVWHQDFLKLDLPEEHFDGIFANATLFHVPSRELPRVLGELRAALKPEGVLFASNPRGRNEEGWNRGRYGVYHDLDTWRRFLTSAGFLELEHYYRPAGLPRDQQPWLASVWRRTLEHHHHHH”: “soluble”.
For “MNEKQKLESGQVHPSDKKSEKDYSKYFEAVYIPPSLKDAKKRGKEAVTYHNDFKISEQFKGLGDGRKFYIRTYGCQMNEHDTEVMAGIFMALGYEATNSVDDANVILLNTCAIRENAENKVFGELGHLKALKKNNPDLILGVCGCMSQEESVVNRILKKHPFVDMIFGTHNIHRLPELLSEAYLSKEMVVEVWSKEGDVIENLPKVRNGKIKGWVNIMYGCDKFCTYCIVPYTRGKERSRRPEDIIQEVRRLASEGYKEITLLGQNVNAYGKDFEDMTYGLGDLMDELRKIDIPRIRFTTSHPRDFDDRLIEVLAKGGNLLDHIHLPVQSGSSEVLKLMARKYDRERYMELVRKIKEAMPNASLTTDIIVGFPNETDEQFEETLSLYREVEFDSAYTFIYSPREGTPAAKMKDNVPMRVKKERLQRLNALVNEISAKKMKEYEGKVVEVLVEGESKNNPDILAGYTEKSKLVNFKGPKEAIGKIVRVKIQQAKTWSLDGEMVGEAIEVKLEHHHHHH”, the “soluble on expression in E. coli” value is “soluble”.
On to “MNEKVFRDPVHTYIHVNNQVIYDLINTKEFQRLRRIKQTSTTSFTFHGAEHS”, for which the “soluble on expression in E. coli” value is reported as “not soluble”.
